Reference: patent publication US12709641B2, “Tau binding compounds” (VOYAGER THERAPEUTICS, INC., dated 2026)
Residue numbers refer to the chain shown, from its start. No end group written: not given here.

T1: residues 57-72 of human tau (human, also: biotin, site not given here, phosphorylated residues, sites not given here)
T1 peptide: EEPGSETSDAKSTPTA

T2: residues 175-191 of human tau (human, also: biotin, site not given here, phosphorylated residues, sites not given here)
T2 peptide: TPPAPKTPPSSGEPPKS

T3: residues 223-238 of human tau (human, also: biotin, site not given here, phosphorylated residues, sites not given here)
T3 peptide: PKKVAVVRTPPKSPSS

T4: residues 383-400 of human tau (human, also: biotin, site not given here, phosphorylated residues, sites not given here)
T4 peptide: KAKTDHGAEIVYKSPVVS

T5: peptides corresponding with residues 413-430 of human tau (human, also: biotin, position not given here, phosphorylated residues, sites not given here)
T5 peptide: STGSIDMVDSPQLATLAD

B1: V0052 (antibody, V domains shown)
VH: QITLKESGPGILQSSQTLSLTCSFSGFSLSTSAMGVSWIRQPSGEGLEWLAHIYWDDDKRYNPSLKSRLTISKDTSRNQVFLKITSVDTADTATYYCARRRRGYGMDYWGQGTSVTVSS
VL: SIVMTQTPKFLLVSAGDRVTITCKASQSVSNDVAWYQQKPGQSPKLLIYYASNRCTGVPDRFTGSGYGTDFTFTISTVQAEDLAVYFCQQDYRSPLTFGAGTKLELK
B2: V0022 (antibody, V domains shown)
VH: QVQLQQPGTELVKPGSSVNLSCKASGFTFTRYWMHWVKERPGHGLEWIGNINPNNGGTDFNEKFKNKATLTVHKSSTTVFIQLSSLTSEDSAVYYCARGTGTGAMDYWGQGTSVTVSS
VL: DVVMTQTPLSLPVSLGDQASISCRSSQSLVHNNGITYLYWYLQKPGQSPKLLIYRVSNRFSGVPDRFGGSGSGTDFTLKISRVEAEDLGVYFCFQGTHVPRTFGGGTKLEIK
B3: V0023 (antibody, V domains shown)
VH: QVQLQQPGTELVKPGASVKLSCKASGYTFTIFWMHWVKQRPGHGLEWIGKINPNNGGGDYNEKFKSKATLTVDKSSTTAYLQLSSLTSEDSAVYYCARGTGTGAMDYWGQGTSVTVSS
VL: B2 VL with Q18H, N32S, Y37H, K44R, S48T, G68S, R82S, K112E

Key:
[1] = target: T1, residues 57-72 of human tau; assay: Pepscan biotinylated peptides, BLI or colorimetric detection
Description: (§1) Recombinant mouse IgG antibodies were prepared with clone-specific variable domain pairs selected from those presented in Table 3 and mouse IgG1 constant domains. Epitope analysis was carried out with different anti-tau antibodies using a peptide scanning approach (e.g., see Verelst, J. et al. Front Mol Biosci. 2020 Mar. 31; 7:48). Libraries of overlapping synthetic biotinylated peptides corresponding to phosphorylated human tau (Pepscan, Lelystad, NL) were obtained and used to coat assay plate wells, each with individual library members. Recombinant mouse IgG antibodies were prepared with clone-specific variable domain pairs selected from those presented in Table 3 and mouse IgG1 constant domains. Antibody binding to peptides in each well was analyzed using colorimetric detection of peptide-antibody complexes with labeled secondary antibody or by associating biotinylated peptides with streptavidin coated biosensors in assay wells and assessing antibody binding by bio-layer interferometry (BLI)-based detection.

[2] = target: T2, residues 175-191 of human tau; assay: as above
Description: as §1

[3] = target: T3, residues 223-238 of human tau; assay: as above
Description: as §1

[4] = target: T4, residues 383-400 of human tau; assay: as above
Description: as §1

[5] = target: T6, enriched paired helical filament tau protein (ePHF) (human, phosphorylated residues of pathological tau, sites not stated); assay: follow up analysis, method not stated
iPHF = iPHF (Homo sapiens (Human), UniProt P10636-8); assay: Octet, antibody on biosensor tips
Description: Anti-human tau antibodies were assessed for affinity for iPHF by Octet (ForteBio, Menlo Park, CA) analysis. Recombinant mouse IgG antibodies were prepared with clone-specific variable domain pairs selected from those presented in Table 3 and mouse IgG1 constant domains. Candidate antibodies were immobilized on biosensor tips (ForteBio) in kinetic buffer (ForteBio). Biosensor tips were then washed before introduction of a solution of iPHF in kinetic buffer for analysis of association and dissociation with candidate antibodies. Affinity measurements (K_D) were obtained using Data Analysis HT version 11.1 and corrected for background and high-frequency noise.

[6] = target: T5, peptides corresponding with residues …; assay: Pepscan biotinylated peptides, BLI or colorimetric detection
Description: as §1

[7] = target: T6, enriched paired helical filament tau …; assay: direct ELISA
Description: Variable domain nucleic acid sequences from antibodies obtained from immunizations described above were used to prepare recombinant mouse IgG antibodies. These candidate antibodies were analyzed for binding to ePHF and specificity for ePHF over wild type tau by direct ELISA.
For direct ePHF and wildtype tau ELISA, plates were first coated with ePHF or wild type tau. Antigen solutions were prepared in PBS and 50 μL were pipetted into each well. Plates were covered and incubated for one hour at 37° C. or overnight at 4° C. Plates were then washed and blocked by addition of 150 μl of blocking buffer to each well and incubated one hour at room temperature. Plates were then washed before addition of serially diluted candidate antibody samples prepared in blocking buffer. Detection of candidate antibody binding was carried out by washing plates and adding a solution of enzyme-labeled secondary antibody in blocking buffer to each well. Secondary antibody binding was detected by addition of substrate and spectrophotometric analysis of resulting reaction product.

Binder	Kd [1]	Kd [2]	Kd [3]	Kd [4]	selectivity for ePHF over wild type tau [5]	Kd (iPHF)	Kd [6]	EC50 [7]
B1	14 nM	7.24 nM	2.08 nM	12.6 nM	> 100 fold	0.6 nM	–	–
B2	–	–	–	–	> 100 fold	0.3 nM	0.306 nM	0.07 nM
B3	–	–	–	–	> 100 fold	4 nM	0.207 nM	0.11 nM
